The values that follow come from IntAct's records for PubMed 19274086.

The chains are these.
B1: Serine/threonine-protein kinase STK11 (Mus musculus), Q9WTK7 (parent)
chain: MDVADPEPLGLFSEGELMSVGMDTFIHRIDSTEVIYQPRRKRAKLIGKYLMGDLLGEGSYGKVKEVLDSETLCRRAVKILKKKKLRRIPNGEANVKKEIQLLRRLRHRNVIQLVDVLYNEEKQKMYMVMEYCVCGMQEMLDSVPEKRFPVCQAHGYFRQLIDGLEYLHSQGIVHKDIKPGNLLLTTNGTLKISDLGVAEALHPFAVDDTCRTSQGSPAFQPPEIANGLDTFSGFKVDIWSAGVTLYNITTGLYPFEGDNIYKLFENIGRGDFTIPCDCGPPLSDLLRGMLEYEPAKRFSIRQIRQHSWFRKKHPLAEALVPIPPSPDTKDRWRSMTVVPYLEDLHGRAEEEEEEDLFDIEDGIIYTQDFTVPGQVLEEEVGQNGQSHSLPKAVCVNGTEPQLSSKVKPEGRPGTANPARKVCSSNKIRRLSACKQQ

This assay covers variants of B1. The conditions noted are these: with aapk2_human PRKAA2, P54646.
Chain of aapk2_human PRKAA2, P54646 (P54646 whole entry, looked up): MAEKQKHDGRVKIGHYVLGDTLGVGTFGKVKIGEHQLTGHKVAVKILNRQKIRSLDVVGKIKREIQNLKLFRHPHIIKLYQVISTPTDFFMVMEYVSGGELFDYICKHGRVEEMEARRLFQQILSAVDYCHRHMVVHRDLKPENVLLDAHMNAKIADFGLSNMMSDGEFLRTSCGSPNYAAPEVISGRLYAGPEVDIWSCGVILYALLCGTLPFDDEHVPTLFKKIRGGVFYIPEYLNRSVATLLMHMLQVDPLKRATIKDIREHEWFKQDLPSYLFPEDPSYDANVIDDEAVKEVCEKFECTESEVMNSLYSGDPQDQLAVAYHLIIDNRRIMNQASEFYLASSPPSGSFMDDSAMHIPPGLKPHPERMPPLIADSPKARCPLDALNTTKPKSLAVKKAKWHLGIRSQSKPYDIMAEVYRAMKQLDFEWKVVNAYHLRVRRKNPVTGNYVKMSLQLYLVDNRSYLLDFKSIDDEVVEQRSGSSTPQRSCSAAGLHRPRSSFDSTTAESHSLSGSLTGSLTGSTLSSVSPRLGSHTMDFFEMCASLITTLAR
As for MDVADPEPLGLFSEGELMSVGMDTFIHRIDSTEVIYQPRRKRAKLIGKYLMGDLLGEGSYGKVKEVLDSETLCRRAVKILKKKKLRRIPNGEANVKKEIQLLRRLRHRNVIQLVDVLYNEEKQKMYMVMEYCVCGMQEMLDSVPEKRFPVCQAHGYFRQLIDGLEYLHSQGIVHKDIKPGNLLLTTNGTLKISDLGVAEALHPFAVDDTCRTSQGSPAFQPPEIANGLDTFSGFKVDIWSAGVTLYNITTGLYPFEGDNIYKLFENIGRGDFTIPCDCGPPLSDLLRGMLEYEPAKRFSIRQIRQHSWFRKKHPLAEALVPIPPSPDTKDRWRSMTVVPYLEDLHGRAEEEEEEDLFDIEDGIIYTQDFTVPGQVLEEEVGQNGQSHSLPKAVCVNGTEPQLSSKVKPEGRPGTANPARKVCSSNKIRRLAACKQQ [S431A], the “effect of a mutation on the interaction” value is “decreasing interaction strength”.

On to MDVADPEPLGLFSEGELMSVGMDTFIHRIDSTEVIYQPRRKRAKLIGKYLMGDLLGEGSYGKVKEVLDSETLCRRAVKILKKKKLRRIPNGEANVKKEIQLLRRLRHRNVIQLVDVLYNEEKQKMYMVMEYCVCGMQEMLDSVPEKRFPVCQAHGYFRQLIDGLEYLHSQGIVHKDIKPGNLLLTTNGTLKISDLGVAEALHPFAVDDTCRTSQGSPAFQPPEIANGLDTFSGFKVDIWSAGVTLYNITTGLYPFEGDNIYKLFENIGRGDFTIPCDCGPPLSDLLRGMLEYEPAKRFSIRQIRQHSWFRKKHPLAEALVPIPPSPDTKDRWRSMTVVPYLEDLHGRAEEEEEEDLFDIEDGIIYTQDFTVPGQVLEEEVGQNGQSHSLPKAVCVNGTEPQLSSKVKPEGRPGTANPARKVCSSNKIRRLDACKQQ [S431D], for which the “effect of a mutation on the interaction” value was “decreasing interaction strength”.

For the variant MDVADPEPLGLFSEGELMSVGMDTFIHRIDSTEVIYQPRRKRAKLIGKYLMGDLLGEGSYGKVKEVLDSETLCRRAVKILKKKKLRRIPNGEANVKKEIQLLRRLRHRNVIQLVDVLYNEEKQKMYMVMEYCVCGMQEMLDSVPEKRFPVCQAHGYFRQLIDGLEYLHSQGIVHKDIKPGNLLLTTNGTLKISALGVAEALHPFAVDDTCRTSQGSPAFQPPEIANGLDTFSGFKVDIWSAGVTLYNITTGLYPFEGDNIYKLFENIGRGDFTIPCDCGPPLSDLLRGMLEYEPAKRFSIRQIRQHSWFRKKHPLAEALVPIPPSPDTKDRWRSMTVVPYLEDLHGRAEEEEEEDLFDIEDGIIYTQDFTVPGQVLEEEVGQNGQSHSLPKAVCVNGTEPQLSSKVKPEGRPGTANPARKVCSSNKIRRLSACKQQ [D194A], the “effect of a mutation on the interaction” value is on record as “disrupting interaction strength”.
